The source of these data is US20160289298A1.

One experiment has as its target TGFβ1 (UniProt P01137). The experiment can be described thus: SPR (Biacore), receptor-Fc captured by anti-Fc antibody, ligand injected. On the technique in general: In SPR one partner is held on a chip, and binding of the other changes the refractive index at the surface.
Another experiment concerns the target TGFβ2 (UniProt P61812). Described as above.

As usually defined, the Kd is the constant that tells how readily two partners part at equilibrium. Read a low Kd as a tighter complex.

TGFβ2, sequence (P61812 303-414 limits assumed): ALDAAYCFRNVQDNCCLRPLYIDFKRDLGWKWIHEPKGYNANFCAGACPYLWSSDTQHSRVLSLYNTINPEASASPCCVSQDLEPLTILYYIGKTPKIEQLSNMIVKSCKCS
TGFβ1, sequence (P01137 279-390 limits assumed): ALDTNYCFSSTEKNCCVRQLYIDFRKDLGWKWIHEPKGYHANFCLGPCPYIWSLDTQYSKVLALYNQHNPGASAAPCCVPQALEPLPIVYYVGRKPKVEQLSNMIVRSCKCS

“TGFβRII-Fc homodimeric complex (from UniProt P37173 23-159) (Fc fusion)”: the dissociation constant (Kd) with TGFβ1 was 0.025 nM; in the experiment with TGFβ2 it was > 44 nM.
